Measured values published in the Human Domainome abundance scans (Beltran et al. 2025).
± gives the uncertainty stated by the source.

B1: Cell division cycle and apoptosis regulator protein 1, residues 625 to 674; numbered along this chain, Q8IX12 (parent)
chain: ISTPTHWSKLDPKTMKVNDLRKELESRALSSKGLKSQLIARLTKQLKVEE

Variants of: B1
Experiment: abundance fitness (aPCA) (normalised: wild type 0, dead -1); higher = more abundant; growth selection in yeast, the domain comes from the species named
Settings: Homo sapiens

Abundance fitness, by site and new letter:
W7: F -0.022 ± 0.063; Q -0.279 ± 0.07; P -0.101 ± 0.06; T -0.103 ± 0.035; A -0.088 ± 0.035; Y -0.051 ± 0.042; C -0.112 ± 0.046; N -0.29 ± 0.076; E -0.139 ± 0.056
L38: A -0.534 ± 0.03; F -0.866 ± 0.085; C -0.477 ± 0.066; S -0.592 ± 0.044; P -0.634 ± 0.046
K32: F -0.213 ± 0.047; D -0.092 ± 0.043; T -0.066 ± 0.049; L -0.071 ± 0.036
S8: A -0.081 ± 0.043; T -0.113 ± 0.038; K -0.061 ± 0.052; D -0.126 ± 0.043; M -0.254 ± 0.041; V -0.304 ± 0.047; Y -0.173 ± 0.063; Q -0.395 ± 0.039; I -0.407 ± 0.063
P12: D -1.02 ± 0.25; L -0.189 ± 0.041; S -0.665 ± 0.047; F -0.762 ± 0.2; I -0.324 ± 0.069; M -0.141 ± 0.059; G -0.655 ± 0.035; R -0.89 ± 0.04; N -0.965 ± 0.17; Y -0.74 ± 0.068; H -0.865 ± 0.049; T -0.207 ± 0.04
H6: C -0.065 ± 0.059; G -0.132 ± 0.042; K -0.008 ± 0.05; T -0.05 ± 0.048; D 0.009 ± 0.048; R -0.092 ± 0.041; W -0.135 ± 0.05
E49: C -0.606 ± 0.089; V -0.906 ± 0.067; Q -0.592 ± 0.056; P -0.86 ± 0.068
R21: K -0.117 ± 0.072; Y -0.256 ± 0.044; A -0.192 ± 0.045; S -0.191 ± 0.049; M 0.036 ± 0.049; W -0.53 ± 0.055; F -0.419 ± 0.042; E -0.541 ± 0.036
S2: A -0.072 ± 0.033; P -0.175 ± 0.031; W -0.083 ± 0.05; T 0.079 ± 0.053; I 0.18 ± 0.071; K 0.096 ± 0.037; V 0.06 ± 0.036; D 0.064 ± 0.038; C 0.029 ± 0.047
N18: F -0.056 ± 0.038; V 0.05 ± 0.027; I 0.077 ± 0.027; Q 0.085 ± 0.029; A 0.072 ± 0.029; M 0.06 ± 0.031; S 0.081 ± 0.028; H 0.042 ± 0.029
K44: D -0.167 ± 0.069; P -0.652 ± 0.075; H -0.246 ± 0.07
R41: G -0.556 ± 0.041; Q -0.466 ± 0.077; S -0.271 ± 0.035; N -0.235 ± 0.045; T -0.237 ± 0.051; P -0.728 ± 0.084; K -0.202 ± 0.03; L -0.331 ± 0.041; D -0.434 ± 0.096
K13: L -0.241 ± 0.036; H -0.135 ± 0.061; D -0.16 ± 0.054; C -0.302 ± 0.066; T -0.13 ± 0.046; A -0.094 ± 0.034
L20: G -0.89 ± 0.044; T -0.727 ± 0.06; E -0.788 ± 0.052; C -0.416 ± 0.077; Q -0.621 ± 0.076; W -0.833 ± 0.09; P -0.899 ± 0.092
K9: V -0.129 ± 0.031; T -0.125 ± 0.055; R 0.009 ± 0.038; Q 0.04 ± 0.043; M -0.077 ± 0.044; N -0.136 ± 0.051; H -0.091 ± 0.049; I -0.254 ± 0.072; S -0.166 ± 0.039; F -0.317 ± 0.06
A28: P -0.782 ± 0.064; L 0.04 ± 0.042; Q 0.151 ± 0.042; W -0.053 ± 0.041; T 0.085 ± 0.037; F 0.003 ± 0.052; E 0.038 ± 0.055; H -0.108 ± 0.076
L24: N -0.991 ± 0.13; T -0.77 ± 0.036; Y -1.01 ± 0.19; S -0.806 ± 0.051; R -0.87 ± 0.052; A -0.829 ± 0.036; P -0.778 ± 0.067; F -0.825 ± 0.068
M15: Q -0.679 ± 0.049; Y -0.926 ± 0.096; G -0.94 ± 0.046; A -0.543 ± 0.043; N -0.942 ± 0.13; D -0.775 ± 0.057
Q37: Y -0.274 ± 0.042; L -0.178 ± 0.03; F -0.256 ± 0.047; S -0.061 ± 0.035; I -0.513 ± 0.056; A 0.004 ± 0.048; R -0.168 ± 0.032; C -0.04 ± 0.054
G33: R -1.04 ± 0.046; S -0.934 ± 0.063; V -0.919 ± 0.055; I -1.04 ± 0.25; H -0.932 ± 0.14; E -0.857 ± 0.058; P -1.02 ± 0.077; Q -0.819 ± 0.05; Y -1.03 ± 0.17; K -0.939 ± 0.071
S26: K 0.197 ± 0.059; C 0.08 ± 0.04; F 0.028 ± 0.06; R 0.118 ± 0.035; E 0.026 ± 0.039; L 0.118 ± 0.038; M 0.073 ± 0.051; G 0.089 ± 0.035
I1: C -0.398 ± 0.18; G -0.261 ± 0.08; Y -0.206 ± 0.23; L -0.3 ± 0.085; M -0.123 ± 0.058
L34: C -0.075 ± 0.043; W -0.151 ± 0.034; Q -0.015 ± 0.037; I -0.069 ± 0.041; Y -0.033 ± 0.063; E -0.113 ± 0.031
T43: D -0.097 ± 0.058; Q -0.068 ± 0.047; S -0.048 ± 0.047; V -0.057 ± 0.041
T5: N -0.42 ± 0.061; Q -0.091 ± 0.063; M -0.067 ± 0.031; E -0.082 ± 0.057; P -0.384 ± 0.062; R -0.103 ± 0.039; K -0.111 ± 0.033
D11: S 0.051 ± 0.039; Y -0.036 ± 0.034; G -0.335 ± 0.032; T 0.218 ± 0.054; C 0.093 ± 0.031; E 0.071 ± 0.048; Q 0.072 ± 0.04; V -0.038 ± 0.042; P -0.738 ± 0.099; A 0.043 ± 0.037
L29: D -0.732 ± 0.1; S -0.368 ± 0.031; P -0.86 ± 0.098
P4: T -0.035 ± 0.049; D -0.074 ± 0.039; C 0.139 ± 0.056; K 0.112 ± 0.063; I 0.029 ± 0.075; H -0.206 ± 0.079; V -0.033 ± 0.033
Q45: M -0.216 ± 0.06; K -0.015 ± 0.062; H -0.284 ± 0.073; C -0.042 ± 0.056; I -0.187 ± 0.068; A -0.045 ± 0.033
L42: H -0.509 ± 0.11; T -0.585 ± 0.053; C -0.795 ± 0.12; Q -0.505 ± 0.052; M -0.206 ± 0.057; Y -0.845 ± 0.081
V48: K 0.009 ± 0.053; C -0.113 ± 0.038; A -0.117 ± 0.043; H -0.106 ± 0.07; F 0.018 ± 0.074; P -0.795 ± 0.046; S -0.059 ± 0.033; M -0.092 ± 0.069
E25: P -1.02 ± 0.12; I -0.274 ± 0.066; Q -0.097 ± 0.035; D -0.581 ± 0.081; K 0.002 ± 0.043; S -0.539 ± 0.058
V17: R -0.139 ± 0.035; A -0.093 ± 0.028; Y -0.054 ± 0.068; F -0.071 ± 0.057; H -0.165 ± 0.066; M 0.065 ± 0.061; N 0.249 ± 0.06; Q -0.082 ± 0.053; W -0.092 ± 0.051
S36: H -0.195 ± 0.058; K -0.118 ± 0.062; D -0.085 ± 0.065; W -0.114 ± 0.032; Y -0.115 ± 0.043; R -0.115 ± 0.032
S31: Y -0.123 ± 0.071; H 0.031 ± 0.059; Q 0.079 ± 0.032; W -0.097 ± 0.029
K22: P -0.491 ± 0.035; F -0.16 ± 0.06; S -0.004 ± 0.043; A -0.148 ± 0.044; H 0.024 ± 0.039
R27: M -0.591 ± 0.082; G -0.743 ± 0.045; C -0.776 ± 0.083; A -0.713 ± 0.064; H -0.765 ± 0.11; T -0.948 ± 0.14; V -0.678 ± 0.055; L -0.805 ± 0.049
L10: A -0.474 ± 0.041; P -0.606 ± 0.059; N -0.516 ± 0.069; C -0.338 ± 0.05; W -0.953 ± 0.068; D -0.748 ± 0.038
A40: T -0.108 ± 0.048; R 0.019 ± 0.042; K -0.349 ± 0.069; F 0.032 ± 0.059; H 0.1 ± 0.064; G 0.03 ± 0.032
S30: Q -0.148 ± 0.045; C 0.069 ± 0.048; K 0.037 ± 0.047; P 0.036 ± 0.048; Y -0.141 ± 0.048; T -0.034 ± 0.033
E50: I 0.068 ± 0.16; A -0.21 ± 0.079; T -0.535 ± 0.26; Q -0.064 ± 0.083
T3: Y 0.124 ± 0.07; P -0.162 ± 0.055; H -0.288 ± 0.083; Q -0.197 ± 0.057; L -0.037 ± 0.041
K47: L -0.151 ± 0.036; E -0.23 ± 0.05; I -0.179 ± 0.06; H -0.212 ± 0.059; G -0.128 ± 0.034; V -0.168 ± 0.037
I39: S -0.205 ± 0.048; W -0.573 ± 0.054; G -0.286 ± 0.035; T -0.049 ± 0.029
K16: D -0.068 ± 0.057; T -0.142 ± 0.056; Y -0.153 ± 0.051; C -0.048 ± 0.066; E -0.066 ± 0.039
E23: R -1.07 ± 0.062; P -0.805 ± 0.1; F -0.737 ± 0.076; D -0.916 ± 0.18; T -0.672 ± 0.05; G -0.904 ± 0.061
K35: I -0.249 ± 0.055; L -0.243 ± 0.043; D -0.212 ± 0.054; V -0.264 ± 0.038; T -0.276 ± 0.061; E -0.074 ± 0.048; N -0.212 ± 0.054; F -0.419 ± 0.08
L46: H -0.827 ± 0.17; Y -0.617 ± 0.11; Q -0.335 ± 0.059; D -0.705 ± 0.039; M -0.023 ± 0.055; W -0.805 ± 0.035; F -0.471 ± 0.076
D19: M 0.031 ± 0.033; T -0.047 ± 0.03; A -0.015 ± 0.03; F -0.035 ± 0.043; L 0.021 ± 0.029; N 0.063 ± 0.032; R -0.073 ± 0.029
T14: V -0.029 ± 0.033; F -0.204 ± 0.063; C -0.074 ± 0.043; Y -0.05 ± 0.061; P -0.798 ± 0.079; S -0.005 ± 0.046
